Assay results as given in publication PMC9361535.

Legend:
Assay in all cases: GFP-Trap pulldown, quantitative mass spectrometry (iBAQ)
HSPA6/7 = conditions: cytoplasmic fraction of HeLa cells; read off a plot
DNAJA1 = conditions: cytoplasmic fraction of HeLa cells; read off a plot
SPRYD3 = conditions: cytoplasmic fraction of HeLa cells; read off a plot
MSRB3 = conditions: cytoplasmic fraction of HeLa cells; read off a plot
WDR5 = WDR5 (UniProt P61964); conditions: nuclear extracts of HeLa cells; read off a plot
ubiquitin = ubiquitin (UniProt P62979); conditions: cytoplasmic fraction of HeLa cells; read off a plot
HSPA8 = HSPA8 (UniProt P11142); conditions: cytoplasmic fraction of HeLa cells; read off a plot
HCFC2 = HCFC2 (UniProt Q9Y5Z7); conditions: nuclear extracts of HeLa cells; read off a plot
PSIP1 = PSIP1 (UniProt O75475); conditions: nuclear extracts of HeLa cells; read off a plot
Chain of PSIP1 (O75475 whole entry): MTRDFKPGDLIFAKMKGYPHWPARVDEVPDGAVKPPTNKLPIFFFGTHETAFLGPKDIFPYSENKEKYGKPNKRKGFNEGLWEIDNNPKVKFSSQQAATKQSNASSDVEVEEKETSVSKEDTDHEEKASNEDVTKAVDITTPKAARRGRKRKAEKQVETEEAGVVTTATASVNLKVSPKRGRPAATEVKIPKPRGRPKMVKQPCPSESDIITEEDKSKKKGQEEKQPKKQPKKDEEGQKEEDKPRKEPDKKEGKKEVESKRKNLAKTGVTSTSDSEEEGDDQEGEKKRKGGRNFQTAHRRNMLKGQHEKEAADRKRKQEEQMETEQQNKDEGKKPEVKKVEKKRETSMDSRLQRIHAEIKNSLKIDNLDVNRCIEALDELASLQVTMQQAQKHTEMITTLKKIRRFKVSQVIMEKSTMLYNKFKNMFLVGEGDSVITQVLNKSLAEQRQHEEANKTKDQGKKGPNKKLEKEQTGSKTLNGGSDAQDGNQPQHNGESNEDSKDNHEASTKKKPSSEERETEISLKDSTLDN

KMT2A = KMT2A (UniProt Q03164); conditions: nuclear extracts of HeLa cells, read off a plot
Chain of KMT2A (Q03164 whole entry): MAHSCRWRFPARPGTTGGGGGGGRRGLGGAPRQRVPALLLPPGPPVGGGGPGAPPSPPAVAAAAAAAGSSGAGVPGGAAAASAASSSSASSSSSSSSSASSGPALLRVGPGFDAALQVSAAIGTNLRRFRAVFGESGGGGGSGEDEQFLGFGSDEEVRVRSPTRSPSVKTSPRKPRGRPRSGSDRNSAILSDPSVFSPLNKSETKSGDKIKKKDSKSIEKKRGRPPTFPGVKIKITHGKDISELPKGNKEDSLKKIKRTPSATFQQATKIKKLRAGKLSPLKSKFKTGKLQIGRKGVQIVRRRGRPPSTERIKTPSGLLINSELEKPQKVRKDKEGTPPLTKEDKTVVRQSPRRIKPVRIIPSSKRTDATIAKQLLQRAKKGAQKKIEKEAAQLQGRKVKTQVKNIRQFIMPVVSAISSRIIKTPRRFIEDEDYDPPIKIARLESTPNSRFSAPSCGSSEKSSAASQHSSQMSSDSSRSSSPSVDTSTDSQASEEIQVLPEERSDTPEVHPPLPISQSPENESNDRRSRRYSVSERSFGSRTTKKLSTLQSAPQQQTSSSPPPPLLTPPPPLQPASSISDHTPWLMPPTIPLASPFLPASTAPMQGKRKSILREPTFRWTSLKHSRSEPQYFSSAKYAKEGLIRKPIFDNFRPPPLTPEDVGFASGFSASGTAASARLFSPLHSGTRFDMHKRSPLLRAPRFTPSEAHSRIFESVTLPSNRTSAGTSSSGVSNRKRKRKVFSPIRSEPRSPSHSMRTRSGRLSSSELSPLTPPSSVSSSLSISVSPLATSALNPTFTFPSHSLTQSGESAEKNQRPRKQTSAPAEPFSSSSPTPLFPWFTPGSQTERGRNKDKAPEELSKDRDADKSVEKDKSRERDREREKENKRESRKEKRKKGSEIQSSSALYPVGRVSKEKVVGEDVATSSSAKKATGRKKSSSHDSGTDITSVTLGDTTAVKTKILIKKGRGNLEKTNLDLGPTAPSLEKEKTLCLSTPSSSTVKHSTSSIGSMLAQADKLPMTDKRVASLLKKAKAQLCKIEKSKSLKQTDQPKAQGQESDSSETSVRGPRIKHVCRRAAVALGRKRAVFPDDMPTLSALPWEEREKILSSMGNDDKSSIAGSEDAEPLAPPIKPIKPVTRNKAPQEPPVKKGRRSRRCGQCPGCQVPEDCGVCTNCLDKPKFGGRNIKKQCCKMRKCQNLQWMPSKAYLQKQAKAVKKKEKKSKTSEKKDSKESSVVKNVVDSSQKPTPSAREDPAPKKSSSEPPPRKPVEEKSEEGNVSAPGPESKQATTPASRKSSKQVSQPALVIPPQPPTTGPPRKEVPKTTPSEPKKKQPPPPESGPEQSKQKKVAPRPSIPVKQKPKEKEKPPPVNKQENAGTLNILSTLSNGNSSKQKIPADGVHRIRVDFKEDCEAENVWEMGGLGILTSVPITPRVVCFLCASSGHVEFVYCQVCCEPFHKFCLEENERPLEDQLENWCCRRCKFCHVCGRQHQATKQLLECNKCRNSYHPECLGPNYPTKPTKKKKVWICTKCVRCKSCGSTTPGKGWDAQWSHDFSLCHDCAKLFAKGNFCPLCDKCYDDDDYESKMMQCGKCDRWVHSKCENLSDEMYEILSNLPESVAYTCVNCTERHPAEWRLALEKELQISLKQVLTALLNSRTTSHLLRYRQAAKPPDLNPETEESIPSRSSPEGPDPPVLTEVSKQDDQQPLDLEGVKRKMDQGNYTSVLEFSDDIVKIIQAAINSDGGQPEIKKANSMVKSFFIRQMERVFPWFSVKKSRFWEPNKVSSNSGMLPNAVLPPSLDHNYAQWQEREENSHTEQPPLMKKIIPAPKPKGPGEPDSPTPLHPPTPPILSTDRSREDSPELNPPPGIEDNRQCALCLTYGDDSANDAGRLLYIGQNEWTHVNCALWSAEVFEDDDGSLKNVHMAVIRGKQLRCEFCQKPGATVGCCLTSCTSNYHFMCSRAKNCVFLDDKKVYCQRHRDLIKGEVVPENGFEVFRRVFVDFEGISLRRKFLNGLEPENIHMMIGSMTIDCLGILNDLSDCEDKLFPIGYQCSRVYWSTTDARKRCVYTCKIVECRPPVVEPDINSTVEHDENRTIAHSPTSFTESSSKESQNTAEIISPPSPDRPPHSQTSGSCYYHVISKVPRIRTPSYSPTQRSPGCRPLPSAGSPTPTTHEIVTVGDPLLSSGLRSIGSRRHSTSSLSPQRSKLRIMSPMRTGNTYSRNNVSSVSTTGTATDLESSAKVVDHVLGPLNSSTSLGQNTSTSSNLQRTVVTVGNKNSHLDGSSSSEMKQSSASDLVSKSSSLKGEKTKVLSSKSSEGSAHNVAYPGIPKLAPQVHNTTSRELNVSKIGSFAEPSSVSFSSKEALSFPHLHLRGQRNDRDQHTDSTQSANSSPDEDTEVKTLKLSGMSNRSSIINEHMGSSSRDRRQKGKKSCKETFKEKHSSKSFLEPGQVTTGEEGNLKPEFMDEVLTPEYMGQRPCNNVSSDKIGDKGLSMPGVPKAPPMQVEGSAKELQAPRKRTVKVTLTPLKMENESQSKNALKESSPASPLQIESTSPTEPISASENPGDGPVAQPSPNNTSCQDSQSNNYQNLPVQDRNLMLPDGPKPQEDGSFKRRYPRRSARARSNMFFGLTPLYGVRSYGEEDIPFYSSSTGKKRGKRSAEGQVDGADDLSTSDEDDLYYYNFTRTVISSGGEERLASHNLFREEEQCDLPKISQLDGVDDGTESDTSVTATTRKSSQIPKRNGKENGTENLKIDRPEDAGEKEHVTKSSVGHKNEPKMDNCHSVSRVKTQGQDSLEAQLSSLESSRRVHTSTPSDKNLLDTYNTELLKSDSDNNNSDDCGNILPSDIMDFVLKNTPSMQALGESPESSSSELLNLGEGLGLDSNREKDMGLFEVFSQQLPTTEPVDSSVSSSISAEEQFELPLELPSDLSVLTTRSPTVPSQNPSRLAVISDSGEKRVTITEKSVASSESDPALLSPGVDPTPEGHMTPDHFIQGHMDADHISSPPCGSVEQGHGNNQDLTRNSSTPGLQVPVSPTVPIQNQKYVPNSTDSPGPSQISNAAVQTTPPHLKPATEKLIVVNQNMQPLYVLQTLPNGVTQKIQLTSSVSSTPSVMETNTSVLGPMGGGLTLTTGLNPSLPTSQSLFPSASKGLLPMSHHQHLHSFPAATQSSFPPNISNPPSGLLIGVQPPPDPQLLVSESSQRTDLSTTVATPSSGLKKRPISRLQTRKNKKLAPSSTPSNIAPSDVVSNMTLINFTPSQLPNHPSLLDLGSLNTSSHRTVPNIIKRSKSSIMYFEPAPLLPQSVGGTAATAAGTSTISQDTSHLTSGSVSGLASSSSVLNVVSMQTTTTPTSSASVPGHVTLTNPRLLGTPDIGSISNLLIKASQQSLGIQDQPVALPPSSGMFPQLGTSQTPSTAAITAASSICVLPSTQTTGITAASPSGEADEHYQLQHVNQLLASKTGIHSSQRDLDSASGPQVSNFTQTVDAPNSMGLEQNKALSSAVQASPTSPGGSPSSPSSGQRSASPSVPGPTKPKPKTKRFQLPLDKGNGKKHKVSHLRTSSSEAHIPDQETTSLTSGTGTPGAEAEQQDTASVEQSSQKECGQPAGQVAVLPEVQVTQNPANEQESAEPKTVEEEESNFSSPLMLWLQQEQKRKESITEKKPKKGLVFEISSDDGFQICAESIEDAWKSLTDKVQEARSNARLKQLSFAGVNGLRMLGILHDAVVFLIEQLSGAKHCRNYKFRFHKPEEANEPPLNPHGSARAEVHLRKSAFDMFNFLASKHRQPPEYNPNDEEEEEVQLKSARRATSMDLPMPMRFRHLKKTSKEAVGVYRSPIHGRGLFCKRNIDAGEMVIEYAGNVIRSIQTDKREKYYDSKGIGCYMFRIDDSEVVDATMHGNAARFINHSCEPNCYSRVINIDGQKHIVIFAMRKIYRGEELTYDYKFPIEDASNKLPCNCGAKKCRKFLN

JunD = JunD (UniProt P17535); conditions: nuclear extracts of HeLa cells, read off a plot
Chain of JunD (P17535 whole entry): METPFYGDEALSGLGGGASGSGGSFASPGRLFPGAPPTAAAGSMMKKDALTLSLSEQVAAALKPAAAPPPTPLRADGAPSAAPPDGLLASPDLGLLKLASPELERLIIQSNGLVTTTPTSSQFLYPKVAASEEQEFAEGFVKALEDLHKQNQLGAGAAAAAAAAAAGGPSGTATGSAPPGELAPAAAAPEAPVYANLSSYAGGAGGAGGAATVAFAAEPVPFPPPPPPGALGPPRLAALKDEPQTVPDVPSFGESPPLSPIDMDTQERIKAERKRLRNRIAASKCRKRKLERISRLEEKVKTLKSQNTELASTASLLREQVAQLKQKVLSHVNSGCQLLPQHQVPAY

PHLDA2 = conditions: cytoplasmic fraction of HeLa cells; read off a plot
ASH2L = ASH2L (UniProt Q9UBL3); conditions: nuclear extracts of HeLa cells; read off a plot
RBBP5 = RBBP5 (UniProt Q15291); conditions: nuclear extracts of HeLa cells; read off a plot
DPY30 = DPY30 (UniProt Q9C005); conditions: nuclear extracts of HeLa cells; read off a plot
Chain of DPY30 (Q9C005 whole entry): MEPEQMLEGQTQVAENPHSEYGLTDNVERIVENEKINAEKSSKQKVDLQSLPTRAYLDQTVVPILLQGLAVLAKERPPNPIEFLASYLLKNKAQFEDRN

KMT2B = KMT2B (UniProt Q9UMN6); conditions: nuclear extracts of HeLa cells; read off a plot
CBS = conditions: cytoplasmic fraction of HeLa cells; read off a plot

## WT menin-GFP (from UniProt O00255-2) L264P
HSPA6/7
  other: stoichiometry: 0.11

## WT menin-GFP (from UniProt O00255-2) L168P
HSPA6/7
  other: stoichiometry: 0.075
DNAJA1
  other: stoichiometry: 0.045
SPRYD3
  other: stoichiometry: 0.04

## WT menin-GFP (from UniProt O00255-2) R322H
MSRB3
  other: stoichiometry: 0.045
WDR5
  other: stoichiometry: 0.046
ubiquitin
  other: stoichiometry: 0.35
HSPA8
  other: stoichiometry: 0.26
HCFC2
  other: stoichiometry: 0.014
PSIP1
  other: stoichiometry: 0.014
KMT2A; parent: est. 1.0
  ratio to parent: 0.8
KMT2A
  other: stoichiometry: 0.028
JunD; parent: est. 1.0
  ratio to parent: 0.53
JunD
  other: stoichiometry: 0.053
PHLDA2
  other: stoichiometry: 0.045
ASH2L
  other: stoichiometry: 0.06
RBBP5
  other: stoichiometry: 0.076
DPY30
  other: stoichiometry: 0.23
KMT2B
  other: stoichiometry: 0.068

## WT menin-GFP (from UniProt O00255-2) E408Q
MSRB3
  other: stoichiometry: 0.095
PHLDA2
  other: stoichiometry: 0.12
CBS
  other: stoichiometry: 0.055

## WT menin-GFP (from UniProt O00255-2) E359K
MSRB3
  other: stoichiometry: 0.22

## WT menin-GFP (from UniProt O00255-2) E366D
MSRB3
  other: stoichiometry: 0.055
PHLDA2
  other: stoichiometry: 0.06

## WT menin-GFP (from UniProt O00255-2) Q141R
MSRB3
  other: stoichiometry: 0.055
HSPA6/7
  other: stoichiometry: 0.04

## WT menin-GFP (from UniProt O00255-2) R52G
MSRB3
  other: stoichiometry: 0.05
PHLDA2
  other: stoichiometry: 0.09
